The chains are these.
B1: Lys80 RAD51 (residues 80-339) (domain or fragment)
chain: KLVPMGFTTATEFHQRRSEIIQITTGSKELDKLLQGGIETGSITEMFGEFRTGKTQICHTLAVTCQLPIDRGGGEGKAMYIDTEGTFRPERLLAVAERYGLSGSDVLDNVAYARAFNTDHQTQLLYQASAMMVESRYALLIVDSATALYRTDYSGRGELSARQMHLARFLRMLLRLADEFGVAVVITNQVVAQVDGAAMFAADPKKPIGGNIIAHASTTRLYLRKGRGETRICKIYDSPCLPEAEAMFAINADGVGDAKD

Data set [1] deals with B1. Nature of the data set: pull-down.
The target in the next data set is T1, Full-length human RAD51 (human, UniProt Q06609 1-339).
T1 sequence: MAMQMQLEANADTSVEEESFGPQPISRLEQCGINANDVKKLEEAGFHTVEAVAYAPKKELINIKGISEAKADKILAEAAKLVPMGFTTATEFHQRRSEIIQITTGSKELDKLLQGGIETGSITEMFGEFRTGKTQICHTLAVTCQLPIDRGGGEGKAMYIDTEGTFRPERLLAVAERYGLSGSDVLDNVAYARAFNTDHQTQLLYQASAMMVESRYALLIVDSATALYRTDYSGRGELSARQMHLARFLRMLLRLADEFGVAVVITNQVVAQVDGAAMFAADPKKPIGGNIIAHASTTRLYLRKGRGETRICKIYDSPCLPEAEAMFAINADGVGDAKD
Nature of the data set: cross-linking.

The data set “SEC” deals with the molecule itself. Description: SEC.

Turning to EKIKEPTLLGFHTASGKKVKIAKESLDKVKNLFDE (biotin on the N-terminus) [BRC4 peptide (human BRCA2 residues 1,514-1,548), biotinylated], the binding result (in data set [1]; with Full-length human RAD51) was “binds” in each case.
As for B1, the binding result in the data set “SEC” is given as “binds”.
